We go through 2 molecules from paper PMC12549891, “Structural mechanisms of assembly, gating, and calmodulin modulation of human olfactory CNG channel” (Nature Communications, 2025).

Sequences and labels used below:
B1: human CNGA2 subunit (natural protein)
chain: MTEKTNGVKSSPANNHNHHAPPAIKANGKDDHRTSSRPHSAADDDTSSELQRLADVDAPQQGRSGFRRIVRLVGIIREWANKNFREEEPRPDSFLERFRGPELQTVTTQEGDGKGDKDGEDKGTKKKFELFVLDPAGDWYYCWLFVIAMPVLYNWCLLVARACFSDLQKGYYLVWLVLDYVSDVVYIADLFIRLRTGFLEQGLLVKDTKKLRDNYIHTLQFKLDVASIIPTDLIYFAVDIHSPEVRFNRLLHFARMFEFFDRTETRTNYPNIFRISNLVLYILVIIHWNACIYYAISKSIGFGVDTWVYPNITDPEYGYLAREYIYCLYWSTLTLTTIGETPPPVKDEEYLFVIFDFLIGVLIFATIVGNVGSMISNMNATRAEFQAKIDAVKHYMQFRKVSKGMEAKVIRWFDYLWTNKKTVDEREILKNLPAKLRAEIAINVHLSTLKKVRIFHDCEAGLLVELVLKLRPQVFSPGDYICRKGDIGKEMYIIKEGKLAVVADDGVTQYALLSAGSCFGEISILNIKGSKMGNRRTANIRSLGYSDLFCLSKDDLMEAVTEYPDAKKVLEERGREILMKEGLLDENEVATSMEVDVQEKLGQLETNMETLYTRFGRLLAEYTGAQQKLKQRITVLETKMKQNNEDDYLSDGMNSPELAAADEP
notes: CNGA2, human; Expressed from a tri-cistronic construct with P2A peptides between neighbouring genes; remnants of P2A may remain at chain ends (surmise); Two copies stand in the heterotetramer; also called A2L; A2R; source: HEK293F, BacMam, tri-cistronic P2A construct, purified within the CNGA2/A4/B1b complex (anti-Flag, Strep-Tactin, SEC); not shown: Flag, N-terminal, kept

The target of data set [1] is T1, human CNGB1b subunit (shorter CNGB1 variant, amino acids 456-1251) (human, UniProt Q14028 456-1251).
T1 construct: CNGB1b, olfactory shorter variant of human CNGB1 lacking the N-terminal GARP domain, amino acids 456-1251 of CNGB1; Expressed from a tri-cistronic construct with P2A peptides between neighbouring genes; remnants of P2A may remain at chain ends (surmise); source: HEK293F, BacMam, tri-cistronic P2A construct, purified within the CNGA2/A4/B1b complex (anti-Flag, Strep-Tactin, SEC); not shown: Flag, …
T1 sequence (Q14028 456-1251, stated change not applied): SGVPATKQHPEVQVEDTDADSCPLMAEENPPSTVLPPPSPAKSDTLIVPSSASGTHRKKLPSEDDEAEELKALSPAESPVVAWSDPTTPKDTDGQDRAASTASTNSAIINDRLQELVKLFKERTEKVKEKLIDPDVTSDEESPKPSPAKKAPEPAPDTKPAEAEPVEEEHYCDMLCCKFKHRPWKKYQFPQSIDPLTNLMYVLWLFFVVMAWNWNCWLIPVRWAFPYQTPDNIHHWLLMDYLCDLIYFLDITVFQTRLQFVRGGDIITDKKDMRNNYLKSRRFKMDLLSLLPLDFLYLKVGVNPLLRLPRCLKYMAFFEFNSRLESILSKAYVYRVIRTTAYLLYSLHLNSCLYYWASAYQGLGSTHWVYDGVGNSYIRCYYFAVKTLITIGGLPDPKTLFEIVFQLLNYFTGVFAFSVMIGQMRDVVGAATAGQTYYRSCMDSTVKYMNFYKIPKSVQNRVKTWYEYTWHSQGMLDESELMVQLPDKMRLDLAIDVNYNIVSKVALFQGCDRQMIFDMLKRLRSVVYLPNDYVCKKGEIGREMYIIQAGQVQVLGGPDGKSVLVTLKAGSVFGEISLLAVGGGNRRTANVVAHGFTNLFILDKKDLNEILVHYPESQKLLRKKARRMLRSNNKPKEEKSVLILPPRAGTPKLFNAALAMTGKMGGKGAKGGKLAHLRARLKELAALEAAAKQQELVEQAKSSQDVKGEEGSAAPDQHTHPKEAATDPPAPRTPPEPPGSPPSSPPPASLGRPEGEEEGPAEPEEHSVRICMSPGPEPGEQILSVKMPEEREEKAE
Nature of the data set: cryo-EM structure; CNGA2/A4/B1b co-expressed with CaM, complex purified with 2 mM CaCl2 in digitonin; apo (no cAMP), closed state; focused refinement around the CLZ region. The settings on record: both partners purified.

Data set [2] deals with the molecule itself. The data set is described as above.
In the data set “human CNGA2 subunit” the target is B1. Nature of the data set: cryo-EM structure; CNGA2/A4/B1b after removal of CaM by EGTA and SEC, incubated with 5 mM cAMP; cAMP-bound open state. To be noted: both partners purified.
The next data set deals with T2, human calmodulin (human, UniProt P0DP23 1-149).
T2 construct: calmodulin, human; The purified CaM (800 nM) and the endogenous HEK293 CaM of the patch-clamp recordings are written with this molecule; also called CaM; Ca^2+/CaM; source: HEK293F, BacMam, co-expressed with CNGA2/A4/B1b, co-purified (anti-Flag, Strep-Tactin, SEC); not shown: Strep, C-terminal, kept
Nature of the data set: cryo-EM structure; CNGA2/A4/B1b co-expressed with CaM, complex purified with 2 mM CaCl2 in digitonin; apo (no cAMP), closed state; focused refinement around the CLZ region. The settings on record: both partners purified.

B1: the binding result in data set [1] and in data set [2] was “binds” throughout.

B2: human CNGA4 subunit (natural protein)
chain: MSQDTKVKTTESSPPAPSKARKLLPVLDPSGDYYYWWLNTMVFPVMYNLIILVCRACFPDLQHGYLVAWLVLDYTSDLLYLLDMVVRFHTGFLEQGILVVDKGRISSRYVRTWSFFLDLASLMPTDVVYVRLGPHTPTLRLNRFLRAPRLFEAFDRTETRTAYPNAFRIAKLMLYIFVVIHWNSCLYFALSRYLGFGRDAWVYPDPAQPGFERLRRQYLYSFYFSTLILTTVGDTPPPAREEEYLFMVGDFLLAVMGFATIMGSMSSVIYNMNTADAAFYPDHALVKKYMKLQHVNRKLERRVIDWYQHLQINKKMTNEVAILQHLPERLRAEVAVSVHLSTLSRVQIFQNCEASLLEELVLKLQPQTYSPGEYVCRKGDIGQEMYIIREGQLAVVADDGITQYAVLGAGLYFGEISIINIKGNMSGNRRTANIKSLGYSDLFCLSKEDLREVLSEYPQAQTIMEEKGREILLKMNKLDVNAEAAEIALQEATESRLRGLDQQLDDLQTKFARLLAELESSALKIAYRIERLEWQTREWPMPEDLAEADDEGEPEEGTSKDEEGRASQEGPPGPE
notes: CNGA4, human; Expressed from a tri-cistronic construct with P2A peptides between neighbouring genes; remnants of P2A may remain at chain ends (surmise); source: HEK293F, BacMam, tri-cistronic P2A construct, purified within the CNGA2/A4/B1b complex (anti-Flag, Strep-Tactin, SEC); not shown: Flag, N-terminal, kept
Turning to B2, the binding result (with human CNGA2 subunit; in data set [1]; in the data set with human calmodulin) was “binds” each time.
